This note sets out measurements from US20230331779A1 (SHAANXI MICOT TECHNOLOGY, published 2023).

In the experiment the target is T1, calcium-sensing receptor (CaSR).
T1 sequence (P41180 whole entry, species assumed, looked up): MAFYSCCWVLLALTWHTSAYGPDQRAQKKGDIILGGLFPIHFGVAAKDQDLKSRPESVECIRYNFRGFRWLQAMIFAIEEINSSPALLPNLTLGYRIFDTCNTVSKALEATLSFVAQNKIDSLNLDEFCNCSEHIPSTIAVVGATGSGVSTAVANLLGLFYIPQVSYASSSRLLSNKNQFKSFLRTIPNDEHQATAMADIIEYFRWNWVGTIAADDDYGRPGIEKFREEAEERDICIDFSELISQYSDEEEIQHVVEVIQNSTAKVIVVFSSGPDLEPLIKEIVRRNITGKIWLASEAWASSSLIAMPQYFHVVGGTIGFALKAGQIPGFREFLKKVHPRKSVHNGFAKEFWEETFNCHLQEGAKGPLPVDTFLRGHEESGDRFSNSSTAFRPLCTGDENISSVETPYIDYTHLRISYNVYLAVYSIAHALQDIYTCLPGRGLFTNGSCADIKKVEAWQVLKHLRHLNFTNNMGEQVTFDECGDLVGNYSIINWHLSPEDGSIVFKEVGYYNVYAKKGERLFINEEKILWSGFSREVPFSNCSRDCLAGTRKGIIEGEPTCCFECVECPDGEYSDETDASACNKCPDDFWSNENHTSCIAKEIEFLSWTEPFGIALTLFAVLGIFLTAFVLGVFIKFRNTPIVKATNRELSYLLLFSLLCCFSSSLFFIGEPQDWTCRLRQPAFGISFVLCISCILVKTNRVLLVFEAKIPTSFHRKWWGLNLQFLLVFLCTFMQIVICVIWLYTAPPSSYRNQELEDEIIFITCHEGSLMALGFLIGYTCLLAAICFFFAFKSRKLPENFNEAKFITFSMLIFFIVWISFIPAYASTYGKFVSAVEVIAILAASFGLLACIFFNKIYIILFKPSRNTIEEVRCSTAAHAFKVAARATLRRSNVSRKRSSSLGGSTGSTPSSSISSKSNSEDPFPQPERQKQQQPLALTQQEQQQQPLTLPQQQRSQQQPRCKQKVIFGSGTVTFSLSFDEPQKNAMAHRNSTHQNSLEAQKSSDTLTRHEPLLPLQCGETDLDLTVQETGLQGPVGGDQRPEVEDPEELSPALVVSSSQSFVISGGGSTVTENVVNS
In words: cell-based or functional assay.

B1: polypeptide of Example 1 (active polypeptide SEQ ID NO: 10) (peptide)
peptide 1: CARRRAR
peptide 2: YXFGGC
modifications: D-Tyr 1; Aib (2-aminoisobutyric acid) 2; D-Phe 3; L-Cys 6 disulfide-bonded to D-Cys 1 of the Y chain; free amino and carboxyl termini (H2N-D-Tyr-Aib-D-Phe-Gly-Gly-L-Cys-OH); N-terminal acetyl (Ac); C-terminal amide (NH2); all residues D-amino acids (Ac-D-Cys-D-Ala-D-Arg-D-Arg-D-Arg-D-Ala-D-Arg-NH2); D-Cys 1 disulfide-bonded to L-Cys 6 of the X chain
As to B1, the “EC50 of agonistic activity on HEK293-CaSR cells, HTRF IP-1 competition method, at a Ca2+ concentration of 1.2 mM” value stood at 84.7 µM and the “EC50 of agonistic activity on HEK293-CaSR cells, HTRF IP-1 competition method, in the absence of Ca2+” value amounted to 980 µM.
